Source: patent US20100323957A1, “NOVEL ASSAY FOR INHIBITORS OF EGFR” (THE REGENTS OF THE UNIVERSITY OF CALIFORNIA THE OFFICE OF …, priority 2007, published 2010)

Columns and labels:
[1] = molecular target: EGFR kinase domain L834R mutant (human) (UniProt P00533); experiment: cell-based or functional assay
[2] = molecular target: EGFR kinase domain I682Q mutant with N-terminal His tag and linker (human) (UniProt P00533); experiment: anisotropy
[3] = molecular target: wild-type EGFR kinase domain (residues 672-998 of human EGFR) with N-terminal 6-His tag, linker and TEV site (human) (UniProt P00533); experiment: cell-based or functional assay

30-residue fluorescein-labelled MIG6 peptide (residues 334-363), sequence (Q9UJM3 334-363): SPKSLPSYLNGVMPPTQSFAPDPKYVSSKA

IC50, inhibition of kinase activity in solution [1] | Substance | also measured
0.2 µM | MIG6(segments 1-2) peptide (residues 336-412) (from UniProt Q9UJM3 336-412) | 
 | 30-residue fluorescein-labelled MIG6 peptide (residues 334-363) (from UniProt Q9UJM3 334-363) | Kd [2]: 18.3 µM
 | 40-residue MIG6 peptide (residues 325-364) (from UniProt Q9UJM3 325-364) | IC50, inhibition of activated EGFR kinase [3]: 10 µM
5 µM | MIG6(segments 1-2) peptide (residues 336-412) bearing Y358A (from UniProt Q9UJM3 336-412) | 
